The labels stand for the following.
T1: human FcgRIIa type H extracellular domain (human, UniProt P12318 34-217)
T1 construct: extracellular domain; also called hFcgRIIaH
T1 sequence (looked up): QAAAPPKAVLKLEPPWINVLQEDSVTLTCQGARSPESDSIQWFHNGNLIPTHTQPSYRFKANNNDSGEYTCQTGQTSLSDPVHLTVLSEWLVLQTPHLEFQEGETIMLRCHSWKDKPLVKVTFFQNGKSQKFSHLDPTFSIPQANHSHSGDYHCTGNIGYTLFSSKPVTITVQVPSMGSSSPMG

T2: human FcgRIIa type R extracellular domain (human, UniProt P12318 34-217)
T2 construct: extracellular domain; also called hFcgRIIaR
T2 sequence (looked up): T1 sequence (looked up) with H134R

T3: human FcgRIIb extracellular domain (human, UniProt P31994 43-217)
T3 construct: extracellular domain; also called hFcgRIIb
T3 sequence (looked up): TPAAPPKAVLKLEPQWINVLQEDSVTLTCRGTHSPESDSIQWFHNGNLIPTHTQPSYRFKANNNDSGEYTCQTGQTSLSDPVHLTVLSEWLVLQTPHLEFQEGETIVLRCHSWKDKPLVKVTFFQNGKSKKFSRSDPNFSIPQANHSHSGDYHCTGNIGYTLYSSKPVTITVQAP

B1: A375-MY518/B167-Lamlib (antibody, human IgG1, lambda)
heavy: EVQLVESGGGLVKPGGSLRLSCAASGFTFSTFTMNWVRQAPGKGLEWVSSISSKSTYIEYADSFKVRFTISRDNAKNSLYLQMNSLRAEDTAVYYCARYGAKNFLNWVFDYWGQGTLVTVSSASTKGPSVFPLAPSSKSTSGGTAALGCLVKDYFPEPVTVSWNSGALTSGVHTFPAVLQSSGLYSLSSVVTVPSSSLGTQTYICNVNHKPSNTKVDKKVEPKSCDKTHTCPPCPAPELWNGPSVFLFPPKPKDTLMISRTPEVTCVVVDVSDEDPEVKFNWYVDGVEVHNAKTKPREELYNSTYRVVSVLTVLHQDWLNGKEYKCKVSNTALPKPIEKTISKAKGQPREPQVYTLPPSREEMTKNQVSLTCLVKGFYPSDIAVEWESNGQPENNYKTTPPVLDSDGSFFLYSKLTVDKSRWQQGNVFSCSVMHEALHNHYTQKSLSLSP
light: QSALTQPPSASGSPGQTVTISCTGTRYDVGYYEYVSWYQQHPGKAPKLMIYETSKRLSGVPDRFSGSKSGNTASLTVSGLQAEDEADYYCSSYRYEHQVSFGGGTKLTVLGQPKAAPSVTLFPPSSEELQANKATLVCLISDFYPGAVTVAWKADSSPVKAGVETTTPSKQSNNKYAASSYLSLTPEQWKSHRSYSCQVTHEGSTVEKTVAPTECS
notes: copies: 2 + 2
B2: A375-SCF025/B167-Lamlib (antibody, human IgG1, lambda)
heavy: B1 heavy with P348R, D418K
light: B1 light
B3: A375-P253/B167-Lamlib (antibody, human IgG1, lambda)
heavy: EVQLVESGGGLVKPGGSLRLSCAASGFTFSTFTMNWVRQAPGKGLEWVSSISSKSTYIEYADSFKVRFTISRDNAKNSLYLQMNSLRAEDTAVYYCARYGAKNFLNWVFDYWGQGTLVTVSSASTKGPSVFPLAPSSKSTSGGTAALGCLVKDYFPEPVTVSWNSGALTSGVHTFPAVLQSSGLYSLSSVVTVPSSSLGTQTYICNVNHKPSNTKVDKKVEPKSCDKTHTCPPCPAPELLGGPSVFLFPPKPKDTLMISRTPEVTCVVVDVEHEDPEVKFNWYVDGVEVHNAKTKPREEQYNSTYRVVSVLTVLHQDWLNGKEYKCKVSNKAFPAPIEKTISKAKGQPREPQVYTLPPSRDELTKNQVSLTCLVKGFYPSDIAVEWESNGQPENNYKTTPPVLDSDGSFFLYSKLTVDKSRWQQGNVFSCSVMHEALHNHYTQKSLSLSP
light: B1 light
notes: copies: 2 + 2
B4: A375-SCF025a/B167-Lamlib (antibody, human IgG1, lambda)
heavy: B1 heavy with K219R, P348R, D418K
light: B1 light
B5: A375-P587/B167-Lamlib (antibody, human IgG1, lambda)
heavy: EVQLVESGGGLVKPGGSLRLSCAASGFTFSTFTMNWVRQAPGKGLEWVSSISSKSTYIEYADSFKVRFTISRDNAKNSLYLQMNSLRAEDTAVYYCARYGAKNFLNWVFDYWGQGTLVTVSSASTKGPSVFPLAPSSKSTSGGTAALGCLVKDYFPEPVTVSWNSGALTSGVHTFPAVLQSSGLYSLSSVVTVPSSSLGTQTYICNVNHKPSNTKVDKKVEPKSCDKTHTCPPCPAPDLLGGDSVFLFPPKPKDTLMISRTPEVTCVVIDVAEEDGEVKFNWYVDGVEVHNAKTKPREEQYNSTYRVVSVLTVLHQDWLNGKEYKCKVSNKALPAPIEKTISKAKGQPREPQVYTLPPSRDELTKNQVSLTCLVKGFYPSDIAVEWESNGQPENNYKTTPPVLDSDGSFFLYSKLTVDKSRWQQGNVFSCSVMHEALHNHYTQKSLSLSP
light: B1 light
notes: copies: 2 + 2
B6: A375-MY518a/B167-Lamlib (antibody, human IgG1, lambda)
heavy: B1 heavy with K219R
light: B1 light
notes: copies: 2 + 2

Where a chain is given by its changes, count along the chain named.

By Kd is commonly meant the equilibrium constant for the complex coming apart. Low values mean higher affinity, high ones lower affinity.

T5 sequence (P08637 17-208): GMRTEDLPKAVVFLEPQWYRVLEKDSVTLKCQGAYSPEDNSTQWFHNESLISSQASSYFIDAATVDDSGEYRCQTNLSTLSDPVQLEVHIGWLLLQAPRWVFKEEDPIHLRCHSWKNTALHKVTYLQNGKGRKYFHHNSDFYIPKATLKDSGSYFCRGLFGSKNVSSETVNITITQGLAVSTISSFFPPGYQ

The target of the first experiment is T4, human FcgRIIIa V158 extracellular domain (human, UniProt P08637 17-208).
T4 construct: extracellular domain; also called hFcgRIIIaV
T4 sequence (P08637 17-208 F176V): as the sequence (P08637 17-208) above, with F160V counted along it
The experiment can be described thus: SPR 25C. On the procedure: (§1) Biacore T200 (GE Healthcare) was used to evaluate the binding activity to the respective human Fcγ receptor (hereafter referred to as FcγR). Measurement was performed at 25° C. using 50 mM phosphate, 150 mM NaCl, 0.05 w/v %-P20, pH 7.4 as buffer. About 1000 RU of antibody was captured using a sensor chip immobilized with CaptureSelect™ Human Fab-lambda Kinetics Biotin Conjugate (Thermo Fisher Scientific) as a molecule for ligand capturing. Human FcγR was diluted to 8 nM for FcγRIa and 1000 nM for other FcγR in the measurement buffer, and it was interacted to the captured antibody. The binding activity of each antibody to FcγR was assessed by calculating the binding amount of FcγR (RU) per unit amount of antibody using Biacore T200 Evaluation Software 2.0.
Regarding B1, the “binding per 1RU antibody” value came to 0.0015 RU and the “relative binding (A375-G1T3/B167-Lamlib=1)” value (“relative binding” below) was determined as 0.02.

B2: the “binding per 1RU antibody” value turned out to be 0.0014 RU and the “relative binding” value is 0.02.

For the molecule B3, the “binding per 1RU antibody” value was 0.0019 RU and the “relative binding” value came to 0.03.

As for B4, the “binding per 1RU antibody” value stood at 0.0016 RU and the “relative binding” value amounted to 0.02.

For the molecule B5, the “binding per 1RU antibody” value was 0.0001 RU and the “relative binding” value was found to be 0.

Consider B6, for which the “binding per 1RU antibody” value is 0.0009 RU and the “relative binding” value was determined as 0.01.

The target in a further experiment is T1, human FcgRIIa type H extracellular …. The experiment can be described thus: SPR 25C. On the procedure: as §1
As for B1, the “binding per 1RU antibody” value worked out at 0.0465 RU and the “relative binding” value was 0.82.

As to B2, the “binding per 1RU antibody” value was determined as 0.0514 RU and the “relative binding” value stood at 0.91.

Consider B3, for which the “binding per 1RU antibody” value turned out to be 0.0497 RU and the “relative binding” value came to 0.88.

Take B4: the “binding per 1RU antibody” value worked out at 0.0514 RU and the “relative binding” value turned out to be 0.91.

Take B5: the “binding per 1RU antibody” value turned out to be 0.0029 RU and the “relative binding” value is 0.05.

Consider B6, for which the “binding per 1RU antibody” value was 0.0479 RU and the “relative binding” value is 0.84.

The next experiment addresses T5, human FcgRIIIa F158 extracellular domain (human, UniProt P08637 17-208).
T5 construct: extracellular domain; also called hFcgRIIIaF
Briefly: SPR 25C. On the procedure:
as §1
For the molecule B1, the “binding per 1RU antibody” value came out at 0.0009 RU and the “relative binding” value is 0.04.

Take B2: the “binding per 1RU antibody” value stood at 0.0012 RU and the “relative binding” value turned out to be 0.06.

Regarding B3, the “binding per 1RU antibody” value was determined as 0.0056 RU and the “relative binding” value stood at 0.26.

For B4, the “binding per 1RU antibody” value turned out to be 0.0009 RU and the “relative binding” value is 0.04.

With B5, the “binding per 1RU antibody” value was determined as 0.0001 RU and the “relative binding” value came out at 0.

In the case of B6, the “binding per 1RU antibody” value was determined as 0.0006 RU and the “relative binding” value is 0.03.

For the next experiment, the target named is T6, human FcgRIa extracellular domain (human, UniProt P12314 16-292).
T6 construct: extracellular domain; also called hFcgRIa
T6 sequence (P12314 16-292): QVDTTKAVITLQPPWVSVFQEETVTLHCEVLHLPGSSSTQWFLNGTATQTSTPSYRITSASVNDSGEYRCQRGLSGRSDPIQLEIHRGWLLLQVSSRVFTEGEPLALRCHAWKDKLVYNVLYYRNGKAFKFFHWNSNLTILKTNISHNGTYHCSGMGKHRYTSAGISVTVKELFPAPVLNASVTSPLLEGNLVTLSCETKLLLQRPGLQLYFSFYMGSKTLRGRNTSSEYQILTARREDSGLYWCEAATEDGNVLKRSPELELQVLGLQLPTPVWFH
The experiment can be described thus: SPR 25C. The protocol:
as §1
Take B1: the “binding per 1RU antibody” value is 0.002 RU and the “relative binding” value was 0.02.

Regarding B2, the “binding per 1RU antibody” value came out at 0.0022 RU and the “relative binding” value was determined as 0.03.

Turning to B3, the “binding per 1RU antibody” value turned out to be 0.0937 RU and the “relative binding” value was determined as 1.15.

For the molecule B4, the “binding per 1RU antibody” value is 0.0021 RU and the “relative binding” value is 0.03.

For the molecule B5, the “binding per 1RU antibody” value came out at 0.0962 RU and the “relative binding” value turned out to be 1.18.

In the case of B6, the “binding per 1RU antibody” value was determined as 0.0033 RU and the “relative binding” value was determined as 0.04.

The target in another experiment is T2, human FcgRIIa type R extracellular …. The experiment can be described thus: SPR 25C. On the procedure:
as §1
For B1, the “binding per 1RU antibody” value turned out to be 0.046 RU and the “relative binding” value was found to be 0.99.

With B2, the “binding per 1RU antibody” value stood at 0.0519 RU and the “relative binding” value was determined as 1.12.

Take B3: the “binding per 1RU antibody” value was 0.168 RU and the “relative binding” value was 3.62.

For B4, the “binding per 1RU antibody” value is 0.0518 RU and the “relative binding” value stood at 1.12.

For the molecule B5, the “binding per 1RU antibody” value came to 0.0371 RU and the “relative binding” value was found to be 0.8.

For B6, the “binding per 1RU antibody” value stood at 0.047 RU and the “relative binding” value is 1.01.

A further experiment concerns the target T3, human FcgRIIb extracellular domain. Briefly: SPR 25C. On the procedure:
as §1
In the case of B1, the “binding per 1RU antibody” value is 0.0482 RU and the “relative binding” value was 4.4.

For B2, the “binding per 1RU antibody” value was found to be 0.0512 RU and the “relative binding” value was 4.67.

As to B3, the “binding per 1RU antibody” value was 0.156 RU and the “relative binding” value was determined as 14.3.

As for B4, the “binding per 1RU antibody” value was 0.0511 RU and the “relative binding” value was 4.67.

As to B5, the “binding per 1RU antibody” value came to 0.143 RU and the “relative binding” value came to 13.

Turning to B6, the “binding per 1RU antibody” value amounted to 0.0489 RU and the “relative binding” value was 4.46.

The target of the next experiment is human FcRn (human, UniProt P55899 24-290; P61769 21-119). The experiment can be described thus: SPR 25C pH 6.0, steady state. The protocol: Biacore T200 (GE Healthcare) was used to assess the binding activity to human FcRn. Measurement was performed at 25° C. using 50 mM phosphate, 150 mM NaCl, 0.05 w/v %-P20, pH 6.0 as buffer. Human FcRn proteins used for this determination were prepared by the procedure described in WO2010107110. About 400 RU of antibody was captured using a sensor chip immobilized with CaptureSelect™ Human Fab-lambda Kinetics Biotin Conjugate (Thermo Fisher Scientific) as a molecule for ligand capturing, followed by the binding of human FcRn diluted in measuring buffer. The activity of the respective antibodies to bind FcRn was assessed by calculating KD(mol/L) by the steady-state model using Biacore T200 Evaluation Software 2.0.
Chain of human FcRn (P55899 24-290 limits assumed, chain 1 of 2): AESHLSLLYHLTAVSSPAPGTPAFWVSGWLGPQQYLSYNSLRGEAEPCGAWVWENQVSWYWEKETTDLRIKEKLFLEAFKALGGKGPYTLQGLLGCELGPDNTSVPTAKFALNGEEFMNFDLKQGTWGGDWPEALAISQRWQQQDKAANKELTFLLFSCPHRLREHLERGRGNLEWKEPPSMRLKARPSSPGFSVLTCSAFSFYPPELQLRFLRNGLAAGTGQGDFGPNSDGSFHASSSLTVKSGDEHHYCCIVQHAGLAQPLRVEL
Chain of human FcRn (P61769 21-119 limits assumed, chain 2 of 2): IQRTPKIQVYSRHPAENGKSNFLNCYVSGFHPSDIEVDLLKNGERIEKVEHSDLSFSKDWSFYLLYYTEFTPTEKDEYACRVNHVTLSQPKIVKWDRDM
On to B1, for which the equilibrium dissociation constant (Kd) came to 1270 nM.

In turn, B2 came in with a dissociation constant Kd of 1100 nM. This Kd and that of the molecule before are within 1.5-fold of each other.

B3: the Kd worked out at 1420 nM.

For the molecule B4, the affinity, expressed as Kd, was 1130 nM.

In turn, B5 gave a Kd of 1700 nM.

B6 gave a Kd of 1320 nM.
